# Data taken from article PMC7319273 (Science (New York, N.y.), 2020).
# B1: 4A8 (human monoclonal antibody) (antibody, V domains shown)
# VH: EVQLVESGAEVKKPGASVKVSCKVSGYTLTELSMHWVRQAPGKGLEWMGGFDPEDGETMYAQKFQGRVTMTEDTSTDTAYMELSSLRSEDTAVYYCATSTAVAGTPDLFDYYYGMDVWGQGTTVTVSS
# VL: EIVMTQSPLSSPVTLGQPASISCRSSQSLVHSDGNTYLSWLQQRPGQPPRLLIYKISNRFSGVPDRFSGSGAGTDFTLKISRVEAEDVGVYYCTQATQFPYTFGQGTKVDIK
# B2: 1M-1D2 (human monoclonal antibody) (antibody, V domains shown)
# VH: QVQLVESGGGLVQPGGSLRLSCAASGFTFSSYAMHWVRQAPGKGLEYVSAISGNGGSTYYAKSVKGRFTISRDNSKNTLYLQMGSLRAEDMAVYYCARGAEYYDFWSGYYSAYFDYWGQGTLVTVSS
# VL: QAVVTQPPSASGTPGQRVTISCSGSSSNIGSNYVYWYQQLPGTAPKLLIYNNNQRPSGVPDRFSGSKSGTSASLAISGLRSEDEADYYCAAWDDSLIYVLFGGGTKLTVL
# B3: 0304-3H3 (human monoclonal antibody) (antibody, V domains shown)
# VH: EVQLVESGPGLVKPSETLSLTCTASGGSISTYYWSWIRQPPGKGLEWIGYIYYSGSTNYNPSLKSRVTISVDTSKNQFSLKLSSVTAADTAVYYCARDRIAPVGKFFGWYFDLWGRGTLVTVSS
# VL: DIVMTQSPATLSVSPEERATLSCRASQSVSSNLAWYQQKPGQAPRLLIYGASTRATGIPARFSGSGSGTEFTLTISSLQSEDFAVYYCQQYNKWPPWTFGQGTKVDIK
# notes: also called mAb 0304-3H3
# B4: 9A1 (human monoclonal antibody) (antibody, V domains shown)
# VH: EVQLLESGGGVVQPGRSLRLSCVVSGFTFNNYGMHWVRQAPGKGLEWVAVISYEGSVKYYGDHVDGRFTISRDPFKNTLYLHMNNLRPDDTAVYYCAKVSAIFWLGQGLSPIDVWGQGTTVTVSS
# VL: DIVMTQSPATLSASPGERVTLSCRASQNIRNNLAWYQQKPGQAPRLLIHGASTRAAGAPARFSGSGSDTQFTLTVSSLQSEDFAVYYCHQYSKWPVTFGGGTKVDIK
# notes: also called mAb 9A1
# B5: 2M-10B11 (human monoclonal antibody) (antibody, V domains shown)
# VH: EVQLVESGGGLVQPGGSLRLSCAASGFTVSSNYMSWVRQAPGKGLEWVSVIYSGGSTYYADSVKGRFTISRDNSKNTLYLQMNSLRAEDTAVYYCARATWLRGVMDVWGQGTTVTVSS
# VL: QSALTQPHSVSESPGKTVTISCTGSSGSIASNYVQWYQQRPGSAPTTVIYEDNQRPSGVPDRFSGSIDSSSNSASLTISGLKTEDEADYYCQSYDSSNHWVFGGGTKLTVL
# notes: ELISA group 2B; also called mAb 2M-10B11
# Columns and labels:
# Details in all cases: both partners purified
# [1] = target: SARS-CoV-2 Spike protein S1 (SARS-CoV-2, Wuhan-Hu-1 (P0DTC2), UniProt P0DTC2); experiment: BLI
# [2] = target: T1, SARS-CoV-2 Spike protein receptor binding domain (RBD) (Severe acute respiratory syndrome …, UniProt P0DTC2); experiment: ELISA
# [3] = target: SARS-CoV-2 Spike protein S2 (SARS-CoV-2, Wuhan-Hu-1 (P0DTC2), UniProt P0DTC2); experiment: BLI
# [4] = target: T1, SARS-CoV-2 Spike protein receptor …; experiment: BLI
Binder,Kd [1],Kd [3],further results
B1,92.7 nM,,binding result [2]: no binding
B2,108 nM,,
B3,,4.52 nM,
B4,,< 0.001 nM,
B5,,,Kd [4]: 24.3 nM
